For 15 molecules, IC50 results are on record in patent US20110237779A1.

The term IC50 denotes the concentration that gives 50% inhibition.

Where a chain is given by its changes, count along the chain named. In names and notes the source's numbering stands.

B1: MHM24 library clone, CDR-L2 SGSTLES (Fab, V domains shown)
VH: EVQLVESGGGLVQPGGSLRLSCAASGYSFTGHWMNWVRQAPGKGLEWVGMIHPSDSETRLNQKFKDRFTISADTSKNTAYLQMNSLRAEDTAVYYCARGIYFYGTTYFDYWGQGTLVTVSS
VL: DIQMTQSPSSLSASVGDRVTITCRASKTISKYLAWYQQKPGKAPKLLIYSGSTLESGVPSRFSGSGSGTDFTLTISSLQPEDFATYYCQQHNEYPLTFGQGTKVEIK
B2: MHM24 library clone, CDR-L2 SGSIFQY, VH Y100dT (Fab, part only; not given: CH1, light constant and phage P3, part only)
light chain: DIQMTQSPSSLSASVGDRVTITCRASKTISKYLAWYQQKPGKAPKLLIYSGSIFQYGVPSRFSGSGSGTDFTLTISSLQPEDFATYYCQQHNEYPLTFGQGTKVEIKR
heavy chain (VH-CH1 fused to phage P3), part: B1 VH
B3: MHM24 library clone, CDR-L2 SGSALQS (Fab, V domains shown)
VH: B1 VH
VL: B1 VL with T53A, E55Q
B4: MHM24 direct hypervariable region graft on the acceptor human consensus framework (Fab displayed on phage) (Fab, V domains shown)
VH: B1 VH
VL: B1 VL with E55Q
B5: MHM24 library clone, CDR-L2 SGRAMQR (Fab, V domains shown)
VH: B1 VH
VL: B1 VL with S52R, T53A, L54M, E55Q, S56R
B6: MHM24 library clone, CDR-L2 SGRALQS (Fab, V domains shown)
VH: B1 VH
VL: B1 VL with S52R, T53A, E55Q
B7: MHM24 library clone, CDR-L2 SGRTLWP (Fab, V domains shown)
VH: B1 VH
VL: B1 VL with S52R, E55W, S56P
B8: MHM24 library clone, CDR-L2 SGRSLQS, VH S28R (Fab, V domains shown)
VH: B1 VH with S28R
VL: B1 VL with S52R, T53S, E55Q
B9: MHM24 library clone, CDR-L2 SGSTLES, VH S55I (Fab, V domains shown)
VH: B1 VH with S56I
VL: B1 VL
B10: MHM24 library clone, CDR-L2 SGSTLES, VH D101E (Fab, V domains shown)
VH: B1 VH with D109E
VL: B1 VL
B11: MHM24 library clone, CDR-L2 SGGTLHR (Fab, V domains shown)
VH: B1 VH
VL: B1 VL with S52G, E55H, S56R
B12: MHM24 library clone, CDR-L2 SGRSLQR, VH L45P (Fab, V domains shown)
VH: B1 VH with L45P
VL: B1 VL with S52R, T53S, E55Q, S56R
B13: MHM24 library clone, CDR-L2 TGSTLES, VL S26T (Fab, V domains shown)
VH: B1 VH
VL: B1 VL with S26T, S50T
B14: MHM24 library clone, CDR-L2 SGYSLHR, VL K27E, L96V (Fab, V domains shown)
VH: B1 VH
VL: B1 VL with K27E, S52Y, T53S, E55H, S56R, L96V
B15: MHM24 library clone, CDR-L2 NARSLQS (Fab, V domains shown)
VH: B1 VH
VL: B1 VL with S50N, G51A, S52R, T53S, E55Q

The first assay addresses human LFA-1 (human) (UniProt P20701). Description: phage ELISA, solution competition: Fab-phage incubated with serially diluted LFA-1, unbound phage captured on LFA-1-coated wells; IC50 used as affinity estimate.
With B1, the IC50 is 9 nM.

Turning to B2, the IC50 was 11 nM.

As for B3, the IC50 is 8 nM.

Regarding B4, the IC50 is 6 nM.

Take B5: the IC50 is 11 nM.

For B6, the IC50 is 9 nM.

Take B7: the IC50 is 17 nM.

For the molecule B8, the IC50 is 17 nM.

For B9, the IC50 was 4 nM.

On to B10, for which the IC50 was 8 nM.

Regarding B11, the IC50 is 6 nM.

B12: the IC50 was 27 nM.

Regarding B13, the IC50 is 4 nM.

For B14, the concentration for half-maximal inhibition (IC50) is 41 nM.

As for B15, the IC50 is 32 nM.

Another assay shares this target. Description: phage ELISA, Fab on phage, competition with antigen in solution.
Consider B4, for which the IC50 came to 6 nM.

A further assay has the same target. The assay can be described thus: phage ELISA, Fab on phage, competition with antigen in solution; IC50 used as affinity estimate.
On to B4, for which the IC50 was 4 nM.
